# Results published in the supplement of paper PMC9112550, “Optimization of the antimicrobial peptide Bac7 by deep mutational scanning” (BMC Biology, 2022).
# System: Escherichia coli TOP10
# Assay: shrunken log2 fold change of peptide-encoding DNA abundance (4.5 h post-induction vs induction); higher = less antimicrobial activity (less host growth inhibition)
# Conditions: time post-induction: 4.5 h; library: site-saturation at positions 5, 18, 19, 20
# 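Note: peptides expressed intracellularly from a pBAD plasmid library in pooled LB shake-flask culture, induced with 0.3% L-arabinose, DNA abundance read by NGS, three biological replicates, DESeq2 with apeglm shrinkage.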
row,Sequence,shrunken log2 fold change
1,RRIRMRPPRLPRPRPRPYLDPRP,0.107
2,RRIRMRPPRLPRPRPRPYLMPRP,-0.357
3,RRIRMRPPRLPRPRPRPYPAPRP,-0.246
4,RRIRMRPPRLPRPRPRPYRFPRP,-0.118
5,RRIRMRPPRLPRPRPRPYRGPRP,0.148
6,RRIRMRPPRLPRPRPRPYRTPRP,0.0313
7,RRIRMRPPRLPRPRPRPYSTPRP,-0.137
8,RRIRMRPPRLPRPRPRPYTMPRP,-0.06
9,RRIRMRPPRLPRPRPRPYWSPRP,-0.186
10,RRIRMRPPRLPRPRPRPYYDPRP,0.000459
11,RRIRMRPPRLPRPRPRPYYFPRP,-0.537
12,RRIRMRPPRLPRPRPRPYYYPRP,-0.304
13,RRIRNRPPRLPRPRPRPACRPRP,0.4
14,RRIRNRPPRLPRPRPRPACTPRP,-0.0652
15,RRIRNRPPRLPRPRPRPAEGPRP,0.0922
16,RRIRNRPPRLPRPRPRPAFKPRP,-0.0432
17,RRIRNRPPRLPRPRPRPAIPPRP,-0.202
18,RRIRNRPPRLPRPRPRPALIPRP,0.0102
19,RRIRNRPPRLPRPRPRPALMPRP,0.15
20,RRIRNRPPRLPRPRPRPALRPRP,0.0951
21,RRIRNRPPRLPRPRPRPAQGPRP,0.279
22,RRIRNRPPRLPRPRPRPAQKPRP,0.918

row,Sequence,shrunken log2 fold change
1,RRIRNRPPRLPRPRPRPASNPRP,-0.065
2,RRIRNRPPRLPRPRPRPAVTPRP,0.0989
3,RRIRNRPPRLPRPRPRPAWLPRP,0.276
4,RRIRNRPPRLPRPRPRPCCDPRP,-0.0282
5,RRIRNRPPRLPRPRPRPCCLPRP,-0.219
6,RRIRNRPPRLPRPRPRPCEQPRP,-0.00776
7,RRIRNRPPRLPRPRPRPCGIPRP,-0.138
8,RRIRNRPPRLPRPRPRPCHSPRP,-0.539
9,RRIRNRPPRLPRPRPRPCKIPRP,-0.00963
10,RRIRNRPPRLPRPRPRPCKLPRP,-0.362
11,RRIRNRPPRLPRPRPRPCKMPRP,-0.00674
12,RRIRNRPPRLPRPRPRPCLNPRP,-0.0299
13,RRIRNRPPRLPRPRPRPCMLPRP,-0.306
14,RRIRNRPPRLPRPRPRPCMPPRP,-0.549
15,RRIRNRPPRLPRPRPRPCMWPRP,-0.0288
16,RRIRNRPPRLPRPRPRPCNYPRP,-0.164
17,RRIRNRPPRLPRPRPRPCPCPRP,-0.0945
18,RRIRNRPPRLPRPRPRPCQDPRP,-0.0893
19,RRIRNRPPRLPRPRPRPCQHPRP,-0.0585
20,RRIRNRPPRLPRPRPRPCSDPRP,0.0121
21,RRIRNRPPRLPRPRPRPCSIPRP,-0.000921
22,RRIRNRPPRLPRPRPRPCSPPRP,-0.354

row,Sequence,shrunken log2 fold change
1,RRIRNRPPRLPRPRPRPCSWPRP,-0.117
2,RRIRNRPPRLPRPRPRPCTDPRP,0.233
3,RRIRNRPPRLPRPRPRPCTTPRP,-0.213
4,RRIRNRPPRLPRPRPRPCWAPRP,-0.057
5,RRIRNRPPRLPRPRPRPCWGPRP,-0.315
6,RRIRNRPPRLPRPRPRPCYGPRP,-0.102
7,RRIRNRPPRLPRPRPRPDAAPRP,0.45
8,RRIRNRPPRLPRPRPRPDAEPRP,0.45
9,RRIRNRPPRLPRPRPRPDAQPRP,-0.173
10,RRIRNRPPRLPRPRPRPDCMPRP,0.113
11,RRIRNRPPRLPRPRPRPDCQPRP,0.0461
12,RRIRNRPPRLPRPRPRPDDAPRP,0.147
13,RRIRNRPPRLPRPRPRPDDKPRP,-0.0189
14,RRIRNRPPRLPRPRPRPDEDPRP,0.421
15,RRIRNRPPRLPRPRPRPDENPRP,0.00254
16,RRIRNRPPRLPRPRPRPDFLPRP,-0.342
17,RRIRNRPPRLPRPRPRPDHPPRP,-0.0362
18,RRIRNRPPRLPRPRPRPDIWPRP,-0.394
19,RRIRNRPPRLPRPRPRPDKWPRP,-0.258
20,RRIRNRPPRLPRPRPRPDLMPRP,3.21
21,RRIRNRPPRLPRPRPRPDMPPRP,-0.244
22,RRIRNRPPRLPRPRPRPDNTPRP,-0.297

row,Sequence,shrunken log2 fold change
1,RRIRNRPPRLPRPRPRPDPVPRP,-0.137
2,RRIRNRPPRLPRPRPRPDQTPRP,-0.0645
3,RRIRNRPPRLPRPRPRPDREPRP,-0.149
4,RRIRNRPPRLPRPRPRPDRWPRP,0.00119
5,RRIRNRPPRLPRPRPRPEAMPRP,0.616
6,RRIRNRPPRLPRPRPRPEAQPRP,-0.0169
7,RRIRNRPPRLPRPRPRPEDAPRP,-0.00133
8,RRIRNRPPRLPRPRPRPEDMPRP,-0.0541
9,RRIRNRPPRLPRPRPRPEDVPRP,-0.0153
10,RRIRNRPPRLPRPRPRPEEEPRP,-0.00134
11,RRIRNRPPRLPRPRPRPEGNPRP,-0.0214
12,RRIRNRPPRLPRPRPRPEHHPRP,-0.114
13,RRIRNRPPRLPRPRPRPEHTPRP,-0.0129
14,RRIRNRPPRLPRPRPRPEITPRP,-0.0284
15,RRIRNRPPRLPRPRPRPEKDPRP,-0.0532
16,RRIRNRPPRLPRPRPRPEKRPRP,-0.0252
17,RRIRNRPPRLPRPRPRPELLPRP,0.0274
18,RRIRNRPPRLPRPRPRPELNPRP,-0.0809
19,RRIRNRPPRLPRPRPRPEMEPRP,-0.0148
20,RRIRNRPPRLPRPRPRPEMGPRP,-0.0261
21,RRIRNRPPRLPRPRPRPEMHPRP,0.191
22,RRIRNRPPRLPRPRPRPENYPRP,-0.553

row,Sequence,shrunken log2 fold change
1,RRIRNRPPRLPRPRPRPEQHPRP,0.0592
2,RRIRNRPPRLPRPRPRPEQTPRP,0.235
3,RRIRNRPPRLPRPRPRPERQPRP,0.221
4,RRIRNRPPRLPRPRPRPETHPRP,-0.0861
5,RRIRNRPPRLPRPRPRPETMPRP,-0.0713
6,RRIRNRPPRLPRPRPRPETWPRP,0.0309
7,RRIRNRPPRLPRPRPRPEVNPRP,-0.0723
8,RRIRNRPPRLPRPRPRPEYEPRP,-0.156
9,RRIRNRPPRLPRPRPRPEYNPRP,-0.678
10,RRIRNRPPRLPRPRPRPFASPRP,-0.0512
11,RRIRNRPPRLPRPRPRPFAYPRP,0.0803
12,RRIRNRPPRLPRPRPRPFDDPRP,-0.00192
13,RRIRNRPPRLPRPRPRPFDYPRP,-0.262
14,RRIRNRPPRLPRPRPRPFEFPRP,-0.0681
15,RRIRNRPPRLPRPRPRPFEIPRP,-0.0195
16,RRIRNRPPRLPRPRPRPFELPRP,0.00621
17,RRIRNRPPRLPRPRPRPFETPRP,0.0215
18,RRIRNRPPRLPRPRPRPFFHPRP,-0.446
19,RRIRNRPPRLPRPRPRPFFPPRP,-0.122
20,RRIRNRPPRLPRPRPRPFFVPRP,0.126
21,RRIRNRPPRLPRPRPRPFHPPRP,0.0752
